For the assay, the target named is 92BR020 SOSIP gp140 trimer (stabilized pre-fusion HIV-1 envelope glycoprotein, SOSIP v.7) (HIV-1 subtype B strain 92BR020). The assay is described as follows: negative-stain electron microscopy; SOSIP proteins diluted in Tris-buffered saline to ~0.02 mg/mL, adsorbed onto carbon-coated copper grids, stained with 2% uranyl formate; 2D classification compared with published well-folded SOSIP trimers.

With “92BR020 SOSIP gp140 trimer (stabilized pre-fusion HIV-1 envelope glycoprotein, SOSIP v.7) (natural protein)”, the stoichiometry N (commonly the number of molecules, sites or subunits per partner or assembly) was 3.

The record behind these values is article PMC11634010.
